B1: antibody 367 (antibody, V domains shown)
VH: QVQLVQSGAEVKKPGASVKVSCKASGYTFTGYYIHWVRQAPGQGLEWMGWINPNSGGTIYAQKFQGRVTMTRDTSISTAYMELSRLTSDDTAVYSCAREPYYDILTGYYAPRRYFDYWGQGTLVTVSS
VL: QSALTQPASVSGSPGQSITISCTGTSSDVGSYNYVSWYLQHPGKAPKLMIYDVSNRPSGVSNRFSGSKSGNTASLTISGLQAEDEADFYCSSYTSRSTYVFGTGTKVTVL
B2: antibody 379 (antibody, V domains shown)
VH: QVQLQESGPGLVKPSQTLSLTCTVSGGSISSGGYYWSWIRQHPGKGLEWIGYIYYSGSTYYNPSLKSRVTISVDTSKNQFSLKLSSVTAADTAVYYCARGPLDFWSGYFRLRYFDSWGQGTLVTVSS
VL: QSALTQPASVSGSPGQSITISCTGTSSDVGGYNYVSWYQQHPGKAPKLMIYDVTNRPSGVSNRFSGSKSGNTASLTISGLQAEDEADYYCSSYTSSSTCVFGTGTKVTVL
B3: antibody 372 (antibody, V domains shown)
VH: QVQLVESGGGVVQPGRSLRLSCAASGFTFSSYAMHWVRQAPGKGLEWVAVISYDGSNKYYADSVKGRFTISRDNSKNTLYLQMNSLRAEDTAVYYCARDLGTSALLWFGELFLNYGMDVWGQGTTVTVSS
VL: QSALTQPRSVSGSPGQSVTISCTGTSSDVGGYNYVSWYQQHPGKAPKLMIYDVSKRPSGVPDRFSGSKSGNTASLTISGLQAEDEADYYCCSYAGSPILVFGGGTKLTVL
B4: antibody 368 (antibody, V domains shown)
V domain 1: QITLKESGPTLVKPTETLTLTCAFSGFSLTKTGEAAGWIRQAPGRALEWVTVIFWDDDKRYSPSLQNRLTVTKDTSKNVVVLTMTNVDPVDTATYFCWAMGGPGKEFFGQGTRVAVSS
V domain 2: QSVLTQPPSVSGAPGQRVTVSCTGTSSSIGPYSDVHWYQHIPGKAPRLLIFGTSNRPSGVPARFSGSKSGSSASLVIAGLQAEDEADYYCQSYDSSLGEIYVFGTGTTVTVL
B5: antibody 363 (antibody, V domains shown)
VH: EVQLLESGGGLVQPGGSLRLSCAASGFTFSTYAMSWVRQAPGKGLEWVSAISGSGGSTYYADSVKGRFTISRDNSKNTLYLQMNSLRAEDTAVYYCASGYSPDYWGQGTLVTVSS
VL: not shown
B6: antibody 349 (antibody, V domains shown)
VH: EVQLVQSGAEVKKPGATVKISCKVSGYTFTDYYMHWVQQAPGKGLEWMGLVDPEDGETIYAEKFQGRVTITADTSTDTAYMELSSLRSEDTAVYYCATENKVPTIIAAAGTRDYYYYGMDVWGQGTTVTVSS
VL: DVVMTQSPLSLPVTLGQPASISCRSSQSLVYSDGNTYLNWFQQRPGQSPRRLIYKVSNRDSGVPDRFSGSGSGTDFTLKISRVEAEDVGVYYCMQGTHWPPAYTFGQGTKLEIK
B7: antibody 366 (antibody, V domains shown)
VH: QVQLVESGGGVVQPGRSLRLSCAASGFTFSSYAMHWVRQAPGKGLEWVAVISYDGSNKYYADSVKGRFTISRDNSKNTLYLQMNSLRAEDTAVYYCARGLVGYNWFDPWGQGTLVTVSS
VL: DIQMTQSPSSVSASVGDRVTITCRASQGISSWLAWYQQKPGKAPKLLIYAASSLQSGVPSRFSGSGSGTDFTLTISSLQPEDFATYYCQQANSFTFGPGTKVDIK
B8: antibody 351 (antibody, V domains shown)
VH: HVQLVESGGGVVQPGRSLRLSCAASGFISRNYGMEWVRQAPGQGLEWVAGIWYDGSKKYYADSVKGRFTISRDTSKNTLFLQMDSLRAEDTAVFYCATATKTFCGGDCPPGGMDVWGQGTTVTVST
VL: SYVLTQPPSVSVAPGKTAWITCVGNNIESESVHWYQQRPGQAPVLVIYYDSDRPSGIPERFFGSNSGNTATLTISRVEAGDEADYYCQVWDSNSDLMVFGGGTKLTVL
B9: antibody 348 (antibody, V domains shown)
VH: QVQLVQSGSELKKPGASVKVSCKASGYTFTSYAMNWVRQAPGQGLEWMGWINTNTGNPTYAQGFTGRFVFSLDTSVSTAYLQISSLKAEDTAVYYCARDHELPNTSSWFGHFEYWGQGTLVTVSS
VL: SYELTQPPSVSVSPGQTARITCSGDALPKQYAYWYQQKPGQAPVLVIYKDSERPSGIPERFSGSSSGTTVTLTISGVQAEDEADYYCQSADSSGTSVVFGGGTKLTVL
B10: antibody 345 (antibody, V domains shown)
VH: QVQLQESGPGLVKPSQTLSLTCTVSGGSISSGDYYWSWIRQPPGKGLEWIGYIYYSGSTYYNPSLKSRVTISVDTSKNQFSLKLSSVTAADTAVYYCARVGMVDNWNFEGNWFDPWGQGTLVTVSS
VL: QSALTQPRSVSGSPGQSVTISCTGTSSDVGGYNYVSWYQQHPGKAPKLMIYDVSKRPSGVPDRFSGSKSGNTASLTISGLQAEDEADYYCCSYAGSVVFGGGTKLTVL
B11: antibody 380 (antibody, V domains shown)
VH: QVQLVESGGGVVQPGRSLRLSCAASGFTLKNYGMHWVRQAPGKGLEWVIVLSFDGSDEYKADSVRGRFTVSRDNSKNTLFLQMNSLRPDDTAVYYCAREQPTMIEGGRGPFDIWGQGTMVTVSS
VL: EVVMTQSPATLSVSPGDRATLSCRASQGVNSNLAWYQQKPGQAPRLLIYAASTRATGIPARFSASGSGTHFTLTISSLQSEDFAVYYCLQYNNWPPWTFGQGTKLEIK
B12: anti-SARS-CoV-2 antibody 462 (antibody, V domains shown)
VH: QVQLVESGGGVVQPGRSLRLSCAASGFTFSSYGMHWVRQAPGKGLEWVAVIWYDGNNKYYADSVKGRFTISRDNSKNTLYLQMNSLRAEDTAVYYCAKDPTWFGELPSYYYYGMDVWGQGTTVTVSS
VL: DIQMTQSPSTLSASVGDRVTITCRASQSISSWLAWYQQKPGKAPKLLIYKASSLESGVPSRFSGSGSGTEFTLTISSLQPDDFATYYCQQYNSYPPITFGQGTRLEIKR
B13: anti-SARS-CoV-2 antibody 555 (antibody, V domains shown)
VH: QVQLVQSGAEVKKPGSSVKVSCKASGGTFSNYAISWVRQAPGQGLEWMGRIIPILGIANYAQKFQGRVTITADKSTSTAYMELSSLRSEDTAVYYCARGYYEARHYYYYYAMDVWGQGTAVTVSS
VL: not shown
B14: anti-SARS-CoV-2 antibody 483 (antibody, V domains shown)
VH: QVQLQESGPGLVKPSETLSLTCTVSGGSISSYYWSWIRQPPGKGLEWIGYIYYSGSTNYNPSLKSRVTISVDTSKNQFSLKLSSVTAADTAVYYCARAPEEKSSEIGELVGWGWFDPWGQGTLVTVSS
VL: not shown
B15: anti-SARS-CoV-2 antibody 408 (antibody, V domains shown)
VH: QVQLVESGGGVVQPGRSLRLSCAASGFTFSSYAMHWVRQAPGKGLEWVAVISYDGSNKYYADSVKGRFTISRDNSRNTLYLQMNSLRAEDTAVYYCAKGADTPHYSGYDFLSVGYYYYGMDVWGQGTTVTVSS
VL: DIQMTQSPSSLSASVGDRVTITCRASQSISSYLNWYQQKPGKAPKLLIYAASSFQSGVPSRFSGSRSGTDFTLTISSLQPEDFATYYCQQSYSAPFTFGPGTKVDIKR
B16: anti-SARS-CoV-2 antibody 419 (antibody, V domains shown)
VH: QVQLVQSGAEVKKPGASVKVSCKASGYTFTSYYMHWVRQAPGQGLEWMGIINPSGGSTSYAQKFQGRVTMTRDTSTSTVYMELSSLRSEDTAVYYCARDWTQSSGYDYYYGLDVWGQGTTVTVSS
VL: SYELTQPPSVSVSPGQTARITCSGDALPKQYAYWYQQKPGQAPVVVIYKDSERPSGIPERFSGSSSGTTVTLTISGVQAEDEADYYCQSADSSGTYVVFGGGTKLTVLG
B17: anti-SARS-CoV-2 antibody 506 (antibody, V domains shown)
VH: QITLKESGPTLVKPTQTLTLTCTFSGFSLSTSGVGVGWIRQPPGKALEWLALIYWDDDKRYSPSLKSRLTITKDTSKNQVVLTMTNMDPVDTATYYCAHHSLSSIFDYWGQGTLVTVSS
VL: QSALTQPASVSGSPGQSITISCTGTSSDVGDYNYVSWYQQHPGKAPKLMIYEVSNRPSGVSNRFSGSKSGNTASLTISGLQAEDEADYYCSSYTSSSTVFGGGTKLTVLG
B18: anti-SARS-CoV-2 antibody 488 (antibody, V domains shown)
VH: EVQLVESGGGLIQPGGSLRLSCAASGLTVSSNYMSWVRQAPGKGLEWVSVIYSGGSTYYADSVKGRFTISRDNSKNTLYLQMNSLRAEDTAVYYCARSPYGGNSWGQGTLVTVSS
VL: not shown
B19: anti-SARS-CoV-2 antibody 364 (antibody, V domains shown)
VH: EVQLVESGGGLVQPGRSLRLSCTASGFTFGDYAMSWFRQAPGKGLEWVGFIRSKAYGGTTEYAASVKGRFTISRDDSKSIAYLQMNSLKTEDTAVYYCTRFGIDYDYIWGSYRYTTLFDYWGQGTLVTVSS
VL: not shown
B20: anti-SARS-CoV-2 antibody 292 (antibody, V domains shown)
VH: EVQLVESGGGLIQPGGSLRLSCAASGFTVSSNYMSWVRQAPGKGLEWVSVIYSGGSTYYADSVKGRFTISRDNSKNTLYLQMNSLRAEDTAVYYCARDLQGGGGPWGQGTLVTVSS
VL: AIQMTQSPSSLSASVGDRVTITCRASQGIRNDLGWYQQKPGKAPKLLIYAASSLQSGVPSRFSGSGSGTDFTLTISSLQPEDFATYYCLQDYNYPRTFGQGTKVEIKR
B21: anti-SARS-CoV-2 antibody 481 (antibody, V domains shown)
VH: EVQLVESGGGLIQPGGSLRLSCAASGFTVSSNYMSWVRQAPGKGLEWVSVIYSGGSTFYADSVKGRFTISRDNSKNTLYLQMNSLRAEDTAVYYCAREVAGTYDYWGQGTLVTVSS
VL: DIQMTQSPSSVSASVGDRVTITCRASQGISSWLAWYQQKPGKAPKLLIYAASSLQSGVPSRFSGSGSGTDFTLTISSLQPEDFATYYCQQANSFPGGTFGPGTKVDIKR
B22: anti-SARS-CoV-2 antibody 447 (antibody, V domains shown)
VH: EVQLVESGGGLVQPGGSLRLSCAASGFTVSSNYMSWVRQAPGKGLEWVSVIYSGGSTYYADSVKGRFTISRDNSKNTLYLQMNSLRAEDTAVYYCARDKSSGSGPWGQGTLVTVSS
VL: AIQMTQSPSSLSASVGDRVTITCRASQGIRNDLGWYQQKPGKAPKLLIYAASSLQSGVPSRFSGSGSGTDFTLTISSLQPEDFATYYCLQDYNYPRTFGQGTKVEIKR

The target of the first assay is SARS-CoV spike protein (SARS-CoV, UniProt P59594 14-1190).
Assay: not given
Turning to B1, the “median fluorescence intensity, fold over isotype control” value (shortened to “median fluorescence intensity, fold”) amounted to 1.08 fold over isotype.

B2: the “median fluorescence intensity, fold” value amounted to 5.9 fold over isotype.

As to B3, the “median fluorescence intensity, fold” value was 1.08 fold over isotype.

B4: the “median fluorescence intensity, fold” value came out at 1.09 fold over isotype.

B5: the “median fluorescence intensity, fold” value amounted to 1.09 fold over isotype.

Turning to B6, the “median fluorescence intensity, fold” value worked out at 1.12 fold over isotype.

As to B7, the “median fluorescence intensity, fold” value was 1.23 fold over isotype.

With B8, the “median fluorescence intensity, fold” value worked out at 1.08 fold over isotype.

For the molecule B9, the “median fluorescence intensity, fold” value came to 1.16 fold over isotype.

On to B10, for which the “median fluorescence intensity, fold” value came out at 1.09 fold over isotype.

With B11, the “median fluorescence intensity, fold” value was 1.21 fold over isotype.

A further assay has as its target SARS-CoV-2 full-length spike protein on pseudotyped lentivirus (SARS-CoV-2, UniProt P0DTC2 14-1273). Description: cell-based or functional assay.
As to B12, the “IC50 (pseudoneutralization)” value is > 50 µg/mL and the “IC80 (pseudoneutralization)” value was > 50 µg/mL.

Take B13: the “IC50 (pseudoneutralization)” value stood at 0.38 µg/mL and the “IC80 (pseudoneutralization)” value is 1.4 µg/mL.

In the case of B14, the “IC50 (pseudoneutralization)” value is > 50 µg/mL and the “IC80 (pseudoneutralization)” value is > 50 µg/mL.

For B15, the “IC50 (pseudoneutralization)” value is > 50 µg/mL and the “IC80 (pseudoneutralization)” value is > 50 µg/mL.

On to B16, for which the “IC50 (pseudoneutralization)” value was > 50 µg/mL and the “IC80 (pseudoneutralization)” value was > 50 µg/mL.

On to B17, for which the “IC50 (pseudoneutralization)” value is > 50 µg/mL and the “IC80 (pseudoneutralization)” value was > 50 µg/mL.

In the case of B18, the “IC50 (pseudoneutralization)” value came out at 3.52 µg/mL and the “IC80 (pseudoneutralization)” value is > 50 µg/mL.

Turning to B19, the “IC50 (pseudoneutralization)” value is > 50 µg/mL and the “IC80 (pseudoneutralization)” value was > 50 µg/mL.

Consider B20, for which the “IC50 (pseudoneutralization)” value was > 50 µg/mL and the “IC80 (pseudoneutralization)” value is > 50 µg/mL.

On to B21, for which the “IC50 (pseudoneutralization)” value was 17.2 µg/mL and the “IC80 (pseudoneutralization)” value is > 50 µg/mL.

Consider B22, for which the “IC50 (pseudoneutralization)” value is > 50 µg/mL and the “IC80 (pseudoneutralization)” value was > 50 µg/mL.

Source of the values: US20210292393A1 (published 2021).
